One series concerns the target ESAT6 (UniProt P9WNK7 P9WNK7:1-95). In words: impedance biosensor, 10 pM protein in PBS. An excerpt:
At this time, each protein was mixed at a concentration of 10 pM with PBS and used for detection.

The target in series [1] is CFP10 (culture filtrate protein 10 kDa) (Mycobacterium tuberculosis H37Rv, UniProt P9WNK5 P9WNK5:1-100). Kind of series: Cy3-aptamer binding to CFP10 on magnetic beads, fluorescence; 20 mM Tris, 50 mM NaCl, 5 mM KCl, 5 mM MgCl2, pH 8.0. The note with it: tags: His6 tag, expressed from pET32a in E. coli BL21(DE3); label: Cy3 (fluorescence Kd assay). As to the method:
400 pmole of CFP10 was mixed with 10 μL of magnetic beads, and then incubated in 100 μL of a binding buffer (20 mM Tris, 50 mM NaCl, 5 mM KCl, 5 mM MgCl₂, pH 8.0) for 1 hour. To separate unbound CFP10, washing was performed twice with a binding buffer. Subsequently, the resulting mixture was incubated together with various concentrations of a Cy3-labeled aptamer, and an unbound aptamer was removed by washing. The amount of Cy3-labeled ssDNA aptamer bound to the magnetic beads with CFP10 immobilized thereon was measured by fluorescence measurement (1420 Victor Multilabel counter, PerkinElmer, USA) by separating only Cy3-labeled ssDNA bound to CFP10. As a result, as shown in FIG. 3 and Table 2 below, the Kd value of the DNA aptamer having a CG6 base sequence was measured.

Chain of CFP10 (culture filtrate protein 10 kDa) (P9WNK5 whole entry, one chain of several): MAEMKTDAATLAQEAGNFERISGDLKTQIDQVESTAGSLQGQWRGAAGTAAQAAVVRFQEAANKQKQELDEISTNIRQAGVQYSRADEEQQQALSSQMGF
Chain of ESAT6 (P9WNK7 whole entry, one chain of several): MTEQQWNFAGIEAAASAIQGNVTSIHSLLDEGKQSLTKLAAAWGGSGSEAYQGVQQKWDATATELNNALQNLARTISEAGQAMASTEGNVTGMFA

B1: CG6 (ssDNA)
DNA: CACCTAATACGACTCACTATAGCGGATCCGACCTAGGTTCAGAAGGCTTTCTATTTTCCCGGTGCCTCGCACTGGCTCGAACAAGCTTGC
Consider B1, for which the binding result with ESAT6 is listed as “no binding”. Besides, in series [1], the Kd (in general, the equilibrium constant for the complex coming apart) was determined as 0.0928 µM.
